Columns and labels:
[1] = target: VapC11 as co-expressed and co-purified with VapB11 in the VapBC11 complex (Mycobacterium tuberculosis) (UniProt P9WFA4); test: […] (pH 8.0), 150 mM NaCl, […]
[2] = test system: VapC11 D5A (Mycobacterium tuberculosis); test: BLI; settings: BLI: 20 mM HEPES pH 7.5, 150 mM NaCl, 25 C

| Substance | percent of the population as heterooctamer [1] [%] | stoichiometry N (VapB11 per VapC11 (2:4)) [1] | stoichiometry N (VapB11 per VapC11 (4:4)) [1] | Kd [2] [nM] |
| --- | --- | --- | --- | --- |
| VapB11 (residues 6-72) as co-expressed and co-purified with VapC11 in the VapBC11 complex (from UniProt P9WLU2 6-72) (domain or fragment) | 80 | 0.5 | 1 | – |
| tRNA-LeuCAG (leuT) | – | – | – | 0.5 |
